A short description of the data set: self-splicing fitness, log relative to wild type (ln ratio); higher = more splicing; Tetrahymena group I intron in knt gene, E. coli kanamycin selection, DiMSum; sequences stand for … in CUCUCU…GGAGGGAAAAGUUAUCAGGCAUGCACCUGGUAGCUAGUCUUUAAACCAAUAGAUUGCAUCGGUUUAAAAGGCAAGACCGUCAAAUUGCGGGAAAGGGGUCAACAGCCGUUCAGUACCAAGUCUCAGGGGAAACUUUGAGAUGGCCUUGCAAAGGGUAUGGUAAUAAGCUGACGGACAUGGUCCUAACCACGCAGCCAAGUCCUAAGUCAACAGAUCUUCUGUUGAUAUGGAUGCAGUUCACAGACUAAAUGUCGGUCGGGGAAGAUGUAUUCUUCUCAUAAGAUAUAGUCGGACCUCUCCUUAAUGGGAGCUAGCGGAUGAAGUGAUGCAACACUGGAGCCGCUGGGAACUAAUUUGUAUGCGAAAGUAUAUUGAUUAGUUUUGGAGUACUCGUGGUCG
The gist of the method: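 Pooled colonies went to amplicon sequencing on an Illumina HiSeq 2500 after six replicate transformations. The plates were LB agar with 100 μg/mL carbenicillin, 50 μM IPTG and 0.2% rhamnose, with or without 25 μg/mL kanamycin, incubated overnight at 37°C or 30°C. The E. coli BL21(DE3) library had all eight P1ex-region intron nucleotides randomised, the intron placed in the knt kanamycin-resistance gene on pET-22b(+). DiMSum fitness is the error-weighted combination of replicate fold changes, kanamycin against none, normalised to wild type.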

± gives the uncertainty stated by the source.

GUAUAGCAAUAUUACGUGAU: the “self-splicing fitness (ln)” value by setting is: (30 °C) -2.29 ± 0.15; (37 °C) -1.71 ± 0.17.
Consider CUUAAGCAAUAUUACGCUUC, for which the “self-splicing fitness (ln)” value (30 °C) was -3.15 ± 0.4.
Regarding UCCGAGCAAUAUUACGUACC, the “self-splicing fitness (ln)” value (30 °C) was -2.2 ± 0.2 and the “self-splicing fitness (ln)” value (37 °C) was -1.93 ± 0.37.
As for ACCGAGCAAUAUUACGGCCG, the “self-splicing fitness (ln)” value by setting is: (30 °C) -2.57 ± 0.09; (37 °C) -1.09 ± 0.1.
On the same counts, the results for UGCUAGCAAUAUUACGCGAU are -4.01 ± 0.39 and -1.03 ± 0.15.
For the sequence ACGGAGCAAUAUUACGACAA, under “37 °C”, the “self-splicing fitness (ln)” value was -1.73 ± 0.45.
For the sequence AGCCAGCAAUAUUACGAGCA, the “self-splicing fitness (ln)” value is, setting by setting: (30 °C) -0.932 ± 0.11; (37 °C) 0.49 ± 0.14.
For the sequence CGCGAGCAAUAUUACGCCUA, the “self-splicing fitness (ln)” value (37 °C) was -2.42 ± 0.45.
With AACAAGCAAUAUUACGAACG, the “self-splicing fitness (ln)” value is -1.33 ± 0.11 (30 °C) and -0.418 ± 0.13 (37 °C).
As to UAGAAGCAAUAUUACGAAUU, the “self-splicing fitness (ln)” value runs as follows: (30 °C) -2.42 ± 0.46; (37 °C) -1.29 ± 0.27.
As to GGCAAGCAAUAUUACGGGCG, the “self-splicing fitness (ln)” value runs as follows: (30 °C) 0.0849 ± 0.086; (37 °C) -0.132 ± 0.096.
Take GUUAAGCAAUAUUACGAUAC: the “self-splicing fitness (ln)” value (30 °C) was -1.34 ± 0.21 and the “self-splicing fitness (ln)” value (37 °C) is -0.951 ± 0.28.
On the same counts, the results for AGCAAGCAAUAUUACGGCCG are -0.219 ± 0.071 and -0.111 ± 0.094.
On the same counts, the results for AUUCAGCAAUAUUACGGCCA are -0.32 ± 0.21 and -0.225 ± 0.21.
On the same counts, the results for GCCCAGCAAUAUUACGGGUC are -4.06 ± 0.15 and -2.4 ± 0.16.
For UGGAAGCAAUAUUACGUCUG, the “self-splicing fitness (ln)” value (30 °C) was -2.56 ± 0.25 and the “self-splicing fitness (ln)” value (37 °C) is -1.52 ± 0.2.
The corresponding values for ACACAGCAAUAUUACGAGUA are -2.69 ± 0.12 and -0.889 ± 0.081.
On the same counts, the results for GGGCAGCAAUAUUACGUAAC are -1.94 ± 0.18 and -0.668 ± 0.2.
AGAGAGCAAUAUUACGCGUU: the “self-splicing fitness (ln)” value (30 °C) was -2.09 ± 0.4.
For ACGAAGCAAUAUUACGUCUU, the “self-splicing fitness (ln)” value (30 °C) is -2.32 ± 0.17 and the “self-splicing fitness (ln)” value (37 °C) is -1.91 ± 0.16.
In the case of AGACAGCAAUAUUACGGGCU, the “self-splicing fitness (ln)” value was -1.78 ± 0.11 (30 °C) and -0.732 ± 0.13 (37 °C).
With CGCGAGCAAUAUUACGCUUA, the “self-splicing fitness (ln)” value reads like this: (30 °C) -2.27 ± 0.23; (37 °C) -1.97 ± 0.24.
For CGAAAGCAAUAUUACGCCUA, the “self-splicing fitness (ln)” value by setting is: (30 °C) -2.47 ± 0.24; (37 °C) -0.736 ± 0.14.
Turning to UCAUAGCAAUAUUACGUGCU, the “self-splicing fitness (ln)” value (30 °C) was -2.6 ± 0.17 and the “self-splicing fitness (ln)” value (37 °C) is -1.99 ± 0.11.
Turning to AUGGAGCAAUAUUACGUGAG, the “self-splicing fitness (ln)” value is, setting by setting: (30 °C) -2.31 ± 0.14; (37 °C) -2.09 ± 0.15.
The corresponding values for CGGCAGCAAUAUUACGGUCA are -0.0453 ± 0.068 and -0.156 ± 0.083.
On the same counts, the results for UCCAAGCAAUAUUACGCCGU are -0.285 ± 0.13 and -0.0434 ± 0.19.
As for UGCUAGCAAUAUUACGCACA, the “self-splicing fitness (ln)” value reads like this: (30 °C) -1.12 ± 0.13; (37 °C) 0.22 ± 0.11.
On the same counts, the results for UAACAGCAAUAUUACGUGAG are -0.729 ± 0.046 and -0.471 ± 0.071.
As for CGGUAGCAAUAUUACGUUUU, the “self-splicing fitness (ln)” value is, setting by setting: (30 °C) -3.83 ± 0.26; (37 °C) -2.41 ± 0.19.
The corresponding values for UAACAGCAAUAUUACGAUGG are -1.82 ± 0.087 and -0.665 ± 0.1.
The corresponding values for CCGUAGCAAUAUUACGCAUU are -3.54 ± 0.31 and -2.9 ± 0.47.
For CGAUAGCAAUAUUACGGCUA, the “self-splicing fitness (ln)” value reads like this: (30 °C) -3.24 ± 0.49; (37 °C) -1.08 ± 0.17.
The corresponding values for UGUAAGCAAUAUUACGGCUA are 0.0076 ± 0.11 and 0.536 ± 0.13.
On the same counts, the results for AUACAGCAAUAUUACGUAGA are -2.11 ± 0.085 and -0.327 ± 0.076.
On the same counts, the results for GCCUAGCAAUAUUACGGACA are -1.03 ± 0.097 and -0.277 ± 0.11.
With GCGCAGCAAUAUUACGGCUG, the “self-splicing fitness (ln)” value runs as follows: (30 °C) -3.01 ± 0.3; (37 °C) -1.7 ± 0.29.
On the same counts, the results for AUUCAGCAAUAUUACGUGAC are -3.05 ± 0.44 and -1.84 ± 0.35.
The corresponding values for UAGUAGCAAUAUUACGCGCU are -1.46 ± 0.16 and -0.161 ± 0.16.
On the same counts, the results for UAUAAGCAAUAUUACGCCUC are -2.74 ± 0.38 and -2.08 ± 0.36.
In the case of UUUAAGCAAUAUUACGAAUG, the “self-splicing fitness (ln)” value is -1.54 ± 0.13 (30 °C) and -0.41 ± 0.15 (37 °C).
On the same counts, the results for CCACAGCAAUAUUACGAAUC are -2.71 ± 0.18 and -2.3 ± 0.3.
The corresponding values for UGAUAGCAAUAUUACGAGGA are -3.09 ± 0.3 and -2.82 ± 0.48.
For the sequence GUGGAGCAAUAUUACGUCUA, the “self-splicing fitness (ln)” value (30 °C) is -3.74 ± 0.47.
For UCGCAGCAAUAUUACGUUAG, the “self-splicing fitness (ln)” value by setting is: (30 °C) -2.74 ± 0.15; (37 °C) -1.63 ± 0.17.
On the same counts, the results for UAAGAGCAAUAUUACGUUGC are -2.74 ± 0.29 and -2.32 ± 0.4.
For CAACAGCAAUAUUACGCCUC, the “self-splicing fitness (ln)” value is -3.85 ± 0.29 (30 °C) and -1.81 ± 0.18 (37 °C).
The corresponding values for AAAAAGCAAUAUUACGUGUC are -3.44 ± 0.17 and -1.79 ± 0.17.
As to ACAGAGCAAUAUUACGAGGG, the “self-splicing fitness (ln)” value runs as follows: (30 °C) -2.31 ± 0.14; (37 °C) -2.35 ± 0.24.
The corresponding values for GGGCAGCAAUAUUACGUUCG are -0.761 ± 0.088 and -0.431 ± 0.11.
With UGUGAGCAAUAUUACGACAA, the “self-splicing fitness (ln)” value runs as follows: (30 °C) -1.97 ± 0.14; (37 °C) -1.68 ± 0.14.
On the same counts, the results for GGAAAGCAAUAUUACGGAGU are -3.76 ± 0.23 and -1.73 ± 0.18.
The corresponding values for AUUUAGCAAUAUUACGCACU are 0.177 ± 0.13 and 0.474 ± 0.16.
On the same counts, the results for CUGUAGCAAUAUUACGAUGA are -1.86 ± 0.16 and -1.83 ± 0.16.
Regarding CCCCAGCAAUAUUACGUAUG, the “self-splicing fitness (ln)” value is -3.71 ± 0.15 (30 °C) and -1.96 ± 0.13 (37 °C).
Turning to AUAAAGCAAUAUUACGGCUU, the “self-splicing fitness (ln)” value is, setting by setting: (30 °C) -0.708 ± 0.1; (37 °C) -0.569 ± 0.12.
With AGAUAGCAAUAUUACGGUAG, the “self-splicing fitness (ln)” value (30 °C) is -3.93 ± 0.37 and the “self-splicing fitness (ln)” value (37 °C) is -1.69 ± 0.21.
On to CUGGAGCAAUAUUACGUGGC, for which the “self-splicing fitness (ln)” value (30 °C) was -2.22 ± 0.21 and the “self-splicing fitness (ln)” value (37 °C) was -2.13 ± 0.25.
On to UGGCAGCAAUAUUACGCCUU, for which the “self-splicing fitness (ln)” value (30 °C) is -1.65 ± 0.14 and the “self-splicing fitness (ln)” value (37 °C) is -0.596 ± 0.21.
The corresponding values for GUAGAGCAAUAUUACGAACG are -2.44 ± 0.22 and -1.38 ± 0.2.
As to GCCAAGCAAUAUUACGUAUG, the “self-splicing fitness (ln)” value by setting is: (30 °C) -2.94 ± 0.15; (37 °C) -1 ± 0.13.

These data come from the supplement of paper PMC7877785.
